B1: Hsp90 co-chaperone Cdc37 (Schizosaccharomyces pombe (strain ATCC 38366 / 972)), O94740 (parent)
chain: MAIDYSKWDKLELSDDSDIEVHPNVDKKSFIRWRQRDIHEKRAVRKQKMEDIKGAMAMNRRLLSRISEMETVLEKESPSDPYVLLGSFLEAKKSEDMDSAIPGGMSYHHMLMSLLKVIKDAEDTTEEKSMDDSDKCLRRLKSHKERLLKLLEDAQKEYDTLEAESKNYITSEDLHLGFDSTYVQKKEPEKPKKTKTKKETIQVIESLNNPTPPTDFPGAKEQASTGNAPKNPVNENESEDEEGLSLSEDGKKFANIDFGDYSSSEEFLKEHLNILADEEESDAILLEAFNAELEGKPSLAKQYVHQALLISYCRQLGPNGLSIFFQKIKDPNHQSQRLFLEDVHNTYVRIHERSAAISKEQAESGEGVEQIQLCAVDPNTKLSITIPEAGSTDPETQKARAAFESFPPNLQKALMTNDLDKINVVLGKMAVENAEEVVEKLSSTGMLSIEEGIIDTTKGETIPQLS

Variants of B1 are the subject of this test. The note with it: with cdk1_schpo cdc2, P04551.
Chain of cdk1_schpo cdc2, P04551 (P04551 whole entry): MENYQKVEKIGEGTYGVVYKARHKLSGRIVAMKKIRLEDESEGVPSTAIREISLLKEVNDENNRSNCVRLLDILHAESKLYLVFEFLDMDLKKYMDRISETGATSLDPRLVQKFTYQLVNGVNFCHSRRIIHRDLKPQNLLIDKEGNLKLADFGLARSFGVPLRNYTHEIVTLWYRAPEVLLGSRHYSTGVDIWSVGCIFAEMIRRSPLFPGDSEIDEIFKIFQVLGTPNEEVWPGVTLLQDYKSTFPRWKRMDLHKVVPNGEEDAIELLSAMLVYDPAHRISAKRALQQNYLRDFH
MAIDYSKWDKLELSDDSDIEVHPNVDKKSFIRWRQRDIHEKRAVRKQKMEDIKGAMAMNRRLLSRISEMETVLEKESPSDPYVLLGSFLEAKKSEDMDSAIPGGMSYHHMLMSLLKVIKDAEDTTEEKSMDDSDKCLRRLKSHKERLLKLLEDAQKEYDTLEAESKNYITSEDLHLGFDSTYVQKKEPEKPKKTKTKKETIQVIESLNNPTPPTDFPGAKEQASTGNAPKNPVNENESEDEEGLSLSEDGKKFANIDFGDYSSSEEFLKEHLNILADEEESDAILLDAFNAELEGKPSLAKQYVHQALLISYCRQLGPNGLSIFFQKIKDPNHQSQRLFLEDVHNTYVRIHERSAAISKEQAESGEGVEQIQLCAVDPNTKLSITIPEAGSTDPETQKARAAFESFPPNLQKALMTNDLDKINVVLGKMAVENAEEVVEKLSSTGMLSIEEGIIDTTKGETIPQLS [E287D]: the “effect of a mutation on the interaction” value is listed as “decreasing interaction”.
For the variant MAIDYSKWDKLELSDDSDIEVHPNVDKKSFIRWRQRDIHEKRAVRKQKMEDIKGAMAMNRRLLSRISEMETVLEKESPSDPYVLLGSFLEAKKSEDMDSAIPGGMSYHHMLMSLLKVIKDAEDTTEEKSMDDSDKCLRRLKSHKERLLKLLEDAQKEYDTLEAESKNYITSEDLHLGFDSTYVQKKEPEKPKKTKTKKETIQVIESLNNPTPPTDFPGAKEQASTGNAPKNPVNENESEDEEGLSLSEDGKKFANIDFGDYSSSEEFLKEHLNILADEEESDAIPLEAFNAELEGKPSLAKQYVHQALLISYCRQLGPNGLSIFFQKIKDPNHQSQRLFLEDVHNTYVRIHERSAAISKEQAESGEGVEQIQLCAVDPNTKLSITIPEAGSTDPETQKARAAFESFPPNLQKALMTNDLDKINVVLGKMAVENAEEVVEKLSSTGMLSIEEGIIDTTKGETIPQLS [L285P], the “effect of a mutation on the interaction” value is reported as “decreasing interaction”.

The values are drawn from IntAct's records for PubMed 16390871.
